These are literature values, as cited in article PMC8828474.

This series addresses Spike RBD (SARS-CoV-2) (UniProt P0DTC2).

Broadly, the Kd is a measure of binding affinity in units of concentration. As for bamlanivimab, the Kd is 0.8 nM.
